# US20080317767A1, “Tripartitle Raftophilic Strutures and their Use” (priority 2004, published 2008)
# Where a SMILES comes first, the peptide text is derived from it. [ ]: non-standard residue; d: D form. The star is where a group is joined. Piperazinyl(4-RhodamineB) = CCN(CC)c1ccc2c(-c3ccccc3C(=O)N3CCN(*)CC3)c3ccc(=[N+](CC)CC)cc-3oc2c1; X1 = CC(C)CCC[C@@H](C)[C@H]1CCC2C3CCC4C[C@@H](O*)CC[C@]4(C)C3CC[C@@]21C; Sta = CC(C)C[C@H](N)[C@@H](O)CC(=O)O; βAla = NCCC(=O)O
# Assay: Qualitative solubility assessment in an aqueous medium
# Assay type: physicochemical
structure (smiles),measurement,value
CCN(CC)c1ccc2c(-c3ccccc3C(=O)N3CCN(C(=O)CC[C@H](N)C(=O)NCCC(=O)NCC(=O)N[C@@H](CCC(=O)O)C(=O)N[C@H](C(=O)N[C@@H](CC(N)=O)C(=O)N[C@@H](CC(C)C)[C@@H](O)CC(=O)N[C@H](C(=O)N[C@@H](C)C(=O)N[C@@H](CCC(=O)O)C(=O)N[C@@H](Cc4ccccc4)C(=O)N[C@@H](CCCNC(=N)N)C(=O)N[C@@H](Cc4c[nH]cn4)C(=O)N[C@@H](CC(=O)O)C(=O)N[C@@H](CO)C(=O)NCC(=O)N[C@@H](Cc4ccc(O)cc4)C(=O)N[C@@H](CCC(=O)O)C(=O)N[C@H](C(=O)N[C@@H](Cc4c[nH]cn4)C(=O)N[C@@H](Cc4c[nH]cn4)C(=O)N[C@@H](CCC(N)=O)C(=O)N[C@@H](CCCCN)C(=O)N[C@@H](CC(C)C)C(=O)N[C@H](C(=O)N[C@@H](Cc4ccccc4)C(=O)N[C@@H](Cc4ccccc4)C(=O)N[C@@H](C)C(=O)N[C@@H](CCC(=O)O)C(=O)N[C@@H](CC(=O)O)C(=O)N[C@H](C(=O)NCC(=O)N[C@@H](CO)C(=O)N[C@@H](CC(N)=O)C(=O)N[C@@H](CCCCN)C(=O)N[C@@H](CC(=O)O[C@H]4CC[C@@]5(C)C(CCC6C5CC[C@@]5(C)C6CC[C@@H]5[C@H](C)CCCC(C)C)C4)C(N)=O)C(C)C)C(C)C)C(C)C)C(C)C)C(C)C)CC3)c3ccc(=[N+](CC)CC)cc-3oc2c1 (stereo partly shown) [compound 24b] (H-E(Piperazinyl(4-RhodamineB))[βAla]GEVN[Sta]VAEFRHDSGYEVHHQKLVFFAEDVGSNKD(X1)-NH2),solubility in an aqueous medium (qualitative comparison of 24b and 25b),higher solubility
